Measurements as given in US20250236673A1 (Ablynx, published 2025).
Changes are numbered by the printed parent chain. Numbers in names are those of the source.

B1: T028501806 (VHH)
VHH: EVQLVESGGGVVQPGGSLRLSCAASGFTFRSFGMSWVRQAPGEGPEWVSSISGSGSDTLYADSVKGRFTISRDNSKNTLYLQMNSLRPEDTALYYCTIGGSLSRSSQGTLVTVSS
notes: K43E vs precursor T028501805; also called HSA006A06(K43E, K83R)
B2: T028501807 (VHH)
VHH: B1 VHH with E43Q
notes: K43Q vs precursor T028501805; also called HSA006A06(K43Q, K83R)
B3: T028501808 (VHH)
VHH: B1 VHH with E43H
notes: K43H vs precursor T028501805; also called HSA006A06(K43H, K83R)
B4: T028501809 (VHH)
VHH: B1 VHH with E43A
notes: K43A vs precursor T028501805; also called HSA006A06(K43A, K83R)
B5: T028501810 (VHH)
VHH: B1 VHH with E43K, K65E
notes: K64E vs precursor T028501805; also called HSA006A06(K64E,K83R)
B6: T028501811 (VHH)
VHH: B1 VHH with E43K, K65Q
notes: K64Q vs precursor T028501805; also called HSA006A06(K64Q, K83R)
B7: T028501812 (VHH)
VHH: B1 VHH with E43K, K65H
notes: K64H vs precursor T028501805; also called HSA006A06(K64H, K83R)
B8: T028501813 (VHH)
VHH: B1 VHH with E43K, K76E
notes: K75E vs precursor T028501805; also called HSA006A06(K75E, K83R)
B9: T028501814 (VHH)
VHH: B1 VHH with E43K, K76Q
notes: K75Q vs precursor T028501805; also called HSA006A06(K75Q, K83R)
B10: T028501815 (VHH)
VHH: B1 VHH with E43K, K76R
notes: K75R vs precursor T028501805; also called HSA006A06(K75R, K83R)
B11: T028501816 (VHH)
VHH: B1 VHH with E43K, K76A
notes: K75A vs precursor T028501805; also called HSA006A06(K75A, K83R)
B12: T028501833 (VHH)
VHH: B1 VHH with E43R
notes: K43R vs precursor T028501805; also called HSA006A06(K43R, K83R)
B13: T028501834 (VHH)
VHH: B1 VHH with E43K, K65R
notes: K64R vs precursor T028501805; also called HSA006A06(K64R, K83R)
B14: T028501835 (VHH)
VHH: B1 VHH with E43K, K65A
notes: K64A vs precursor T028501805; also called HSA006A06(K64A, K83R)
B15: T028501836 (VHH)
VHH: B1 VHH with E43K, K76H
B16: T028501820 (VHH)
VHH: EVQLVESGGGVVQPGGSLRLSCAASGHTFSEYALGWFRQAPGREREFVAAINWGGGWTYYADSVKGRFTISRDNAKNTLYLQMNSLRPEDTALYYCAASSDYAGGNPTGYPYWGQGTLVTVSS
notes: K43R vs precursor T028501817; also called A0315024B02(M43R, Q64K, K83R)
B17: T028501821 (VHH)
VHH: B16 VHH with R43H
notes: K43H vs precursor T028501817; also called A0315024B02(M43H, Q64K, K83R)
B18: T028501822 (VHH)
VHH: B16 VHH with R43A
notes: K43A vs precursor T028501817; also called A0315024B02(M43A, Q64K, K83R)
B19: T028501823 (VHH)
VHH: B16 VHH with R43K, K65E
notes: K64E vs precursor T028501817; also called A0315024B02(M43K, Q64E, K83R)
B20: T028501824 (VHH)
VHH: B16 VHH with R43K, K65Q
notes: also called A0315024B02(M43K, (K64K83R))
B21: T028501825 (VHH)
VHH: B16 VHH with R43K, K65R
notes: K64R vs precursor T028501817; also called A0315024B02(M43K, Q64R, K83R)
B22: T028501826 (VHH)
VHH: B16 VHH with R43K, K65H
notes: K64H vs precursor T028501817; also called A0315024B02(M43K, Q64H, K83R)
B23: T028501827 (VHH)
VHH: B16 VHH with R43K, K65A
notes: K64A vs precursor T028501817; also called A0315024B02(M43K, Q64A, K83R)
B24: T028501828 (VHH)
VHH: B16 VHH with R43K, K76E
notes: K75E vs precursor T028501817; 38 used; also called A0315024B02(M43K, Q64K, K75E, K83R)
B25: T028501829 (VHH)
VHH: B16 VHH with R43K, K76Q
notes: K75Q vs precursor T028501817; also called A0315024B02(M43K, Q64K, K75Q, K83R)
B26: T028501830 (VHH)
VHH: B16 VHH with R43K, K76R
notes: K75R vs precursor T028501817; also called A0315024B02(M43K, Q64K, K75R, K83R)
B27: T028501831 (VHH)
VHH: B16 VHH with R43K, K76H
notes: K75H vs precursor T028501817; also called A0315024B02(M43K, Q64K, K75H, K83R)
B28: T028501832 (VHH)
VHH: B16 VHH with R43K, K76A
notes: K75A vs precursor T028501817; also called A0315024B02(M43K, Q64K,K75A, K83R)
B29: T039400039 (VHH)
VHH: B1 VHH with E43R, K65R
notes: Single lysine at 75; also called HIS6-ENLYFQS-5GS-HSA006A06(K43R, K64R, K83R)
B30: T039400040 (VHH)
VHH: B1 VHH with E43R, K65R, K76R
notes: No lysine; also called HIS6-ENLYFQS-5GS-HSA006A06(K43R, K64R, K75R, K83R)
B31: T039400041 (VHH)
VHH: B1 VHH with E43R, K76R
notes: Single lysine at 64; also called HIS6-ENLYFQS-5GS-HSA006A06(K43R, K75R, K83R)
B32: T039400042 (VHH)
VHH: B1 VHH with E43R, K65R, N74K, K76R
notes: Single lysine at 73; also called HIS6-ENLYFQS-5GS-HSA006A06(K43R, K64R, N73K, K75R, K83R)
B33: T039400043 (VHH)
VHH: B1 VHH with E43K, K65R, K76R
notes: Single lysine at 43; also called HIS6-ENLYFQS-5GS-HSA006A06(K64R, K75R, K83R)
B34: T039400044 (VHH)
VHH: B1 VHH with E43R, K65R, K76R, Q107K
notes: also called HIS6-ENLYFQS-5GS-HSA006A06(K43R, K64R, K75R, K83R, Q105K)
B35: T039400045 (VHH)
VHH: B1 VHH with E43R, P45K, K65R, K76R
notes: Single lysine at 45; also called HIS6-ENLYFQS-5GS-HSA006A06(K43R, P45K,K64R, K75R, K83R)
B36: T039400046 (VHH)
VHH: B1 VHH with E43R, K65R, K76R
notes: Single lysine at the C-terminus; also called HIS6-ENLYFQS-5GS-HSA006A06(K43R, K64R, K75R, K83R)-K
B37: T039400047 (VHH)
VHH: EVQLVESGGGVVQPGGSLRLSCAASGLTFSTYTMGWFRQAPGREREFVAAIIWSGSNTYYADSVKGRFTISRDNARNTVYLQMNSLRPEDTALYYCAAQHFGPIGLTTRGYHYWGQGTLVTVSS
notes: Single lysine at 64; also called HIS6-ENLYFQS-5GS-A0315007E07(K43R, K75R)
B38: T039400048 (VHH)
VHH: B37 VHH with R45K, K65R
notes: Single lysine at 45; also called HIS6-ENLYFQS-5GS-A0315007E07(K43R, R45K, K64R, K75R)
B39: T039400049 (VHH)
VHH: B37 VHH with K65R, Q116K
notes: also called HIS6-ENLYFQS-5GS-A0315007E07(K43R, K64R, K75R, Q105K)
B40: T039400050 (VHH)
VHH: B37 VHH with K65R
notes: No lysine; also called HIS6-ENLYFQS-5GS-A0315007E07(K43R, K64R, K75R)

Molecular target: T1, human serum albumin (human, UniProt P02768 25-609)
T1 construct: Immobilised by amine coupling on a C1 chip; also called HSA
Test: SPR Biacore 8K+, HSA amine-coupled on C1 chip, ISVD analyte, 1:1 fit

T1 sequence (P02768 25-609 limits assumed): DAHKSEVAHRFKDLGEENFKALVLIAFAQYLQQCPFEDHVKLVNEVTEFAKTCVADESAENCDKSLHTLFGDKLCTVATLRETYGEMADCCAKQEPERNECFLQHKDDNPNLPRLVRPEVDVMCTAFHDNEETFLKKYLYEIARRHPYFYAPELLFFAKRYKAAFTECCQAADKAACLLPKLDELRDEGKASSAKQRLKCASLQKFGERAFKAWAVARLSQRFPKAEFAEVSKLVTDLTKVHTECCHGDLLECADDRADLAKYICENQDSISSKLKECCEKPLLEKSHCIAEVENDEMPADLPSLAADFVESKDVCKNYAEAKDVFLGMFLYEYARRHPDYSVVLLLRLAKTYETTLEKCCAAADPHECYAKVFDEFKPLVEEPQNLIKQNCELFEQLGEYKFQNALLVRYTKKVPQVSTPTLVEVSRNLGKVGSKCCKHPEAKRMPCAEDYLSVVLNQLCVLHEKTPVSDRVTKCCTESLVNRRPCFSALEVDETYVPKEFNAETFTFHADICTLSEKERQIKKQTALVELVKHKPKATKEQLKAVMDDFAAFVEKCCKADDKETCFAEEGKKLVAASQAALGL

Binder | Kd [nM] | koff [s⁻¹] | kon [M⁻¹ s⁻¹]
B1 | 1.26 | 0.00108 | 856000
B2 | 1.76 | 0.00119 | 677000
B3 | 1.4 | 0.00102 | 728000
B4 | 1.13 | 0.000872 | 769000
B5 | 1.93 | 0.00124 | 644000
B6 | 1.76 | 0.00103 | 587000
B7 | 1.74 | 0.00102 | 590000
B8 | 1.98 | 0.00102 | 514000
B9 | 1.4 | 0.00114 | 814000
B10 | 1.48 | 0.00127 | 860000
B11 | 1.31 | 0.00105 | 799000
B12 | 1.29 | 0.000906 | 703000
B13 | 1.11 | 0.00112 | 1.01e+06
B14 | 2.06 | 0.00108 | 524000
B15 | 1.35 | 0.00114 | 839000

Molecular target: T2, recombinant human CEACAM5 (human, UniProt P06731 35-685, limits assumed)
T2 construct: Immobilised by amine coupling on a CM5 chip
T2 sequence (looked up): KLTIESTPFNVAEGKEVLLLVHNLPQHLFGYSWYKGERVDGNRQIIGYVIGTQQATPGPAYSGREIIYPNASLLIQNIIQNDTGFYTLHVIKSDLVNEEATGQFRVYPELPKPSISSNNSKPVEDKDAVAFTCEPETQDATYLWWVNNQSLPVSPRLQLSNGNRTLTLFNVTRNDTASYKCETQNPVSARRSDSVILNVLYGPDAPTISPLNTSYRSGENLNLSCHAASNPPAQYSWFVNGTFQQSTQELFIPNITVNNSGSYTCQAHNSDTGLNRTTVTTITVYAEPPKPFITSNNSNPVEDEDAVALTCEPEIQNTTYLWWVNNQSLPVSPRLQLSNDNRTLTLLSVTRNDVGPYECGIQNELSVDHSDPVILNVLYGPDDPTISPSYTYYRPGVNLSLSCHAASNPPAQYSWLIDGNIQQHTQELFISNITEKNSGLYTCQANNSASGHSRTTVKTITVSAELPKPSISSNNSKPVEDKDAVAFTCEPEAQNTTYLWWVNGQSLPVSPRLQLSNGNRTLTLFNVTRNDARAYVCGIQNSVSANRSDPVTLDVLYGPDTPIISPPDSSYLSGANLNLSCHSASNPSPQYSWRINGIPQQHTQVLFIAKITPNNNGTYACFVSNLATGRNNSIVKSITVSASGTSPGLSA
Test: SPR Biacore 8K+, CEACAM5 amine-coupled on CM5, ISVD analyte, 1:1 fit

Binder | Kd [nM] | koff [s⁻¹] | kon [M⁻¹ s⁻¹]
B16 | 7.13 | 0.00172 | 242000
B17 | 9.11 | 0.00193 | 212000
B18 | 8.77 | 0.00198 | 225000
B19 | 18.2 | 0.00282 | 155000
B20 | 12.2 | 0.00249 | 205000
B21 | 7.27 | 0.00241 | 331000
B22 | 8.42 | 0.00232 | 275000
B23 | 7.95 | 0.00235 | 295000
B24 | 7.51 | 0.00203 | 270000
B25 | 7.14 | 0.00208 | 291000
B26 | 6.01 | 0.00207 | 344000
B27 | 7.8 | 0.00209 | 268000
B28 | 6.34 | 0.00204 | 322000

Molecular target: T1, human serum albumin
Test: SPR on HSA (Example 2; method not restated, as Example 1)

Binder | Kd [nM] | koff [s⁻¹] | kon [M⁻¹ s⁻¹]
B29 | 7.51 | 0.00226 | 301000
B30 | 6.22 | 0.00231 | 371000
B31 | 8.01 | 0.00232 | 289000
B32 | 89.6 | 0.0178 | 198000
B33 | 6.42 | 0.00226 | 353000
B34 | 6.42 | 0.00229 | 357000
B35 | 8.59 | 0.00263 | 306000
B36 | 5.95 | 0.00224 | 377000

Molecular target: T2, recombinant human CEACAM5
Test: SPR on CEACAM5 (Example 2; method not restated, as Example 1)

Binder | Kd [nM] | koff [s⁻¹] | kon [M⁻¹ s⁻¹]
B37 | 0.915 | 0.000451 | 493000
B38 | 0.874 | 0.000504 | 577000
B39 | 0.914 | 0.000536 | 586000
B40 | 0.952 | 0.000526 | 553000
